Experimental data taken from the supplement of paper PMC7125110.
± gives the standard error. Variants at the floor of the assay were thinned out.

B1: glmS ribozyme (parent)
chain: AUAAAAGCGCCAGAACUACAGAAAUGUAGUUGACGAGGAGGAGGUUUAUCGAAUUUUCGGCGGAUGCCUCCAAA

Key:
Details in all cases: with glucosamine-6-phosphate
glucosamine-6-phosphate [1] = variants of: B1; assay: self-cleavage kobs at 40 uM GlcN6P; higher = faster cleavage; RNA array
Method in brief: (§1)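 Glucosamine-6-phosphate, from 40 μM to 10 mM in HEPES/KCl/Mg(OAc)2 buffer, was flowed over sequenced MiSeq chips carrying barcoded ribozyme variants transcribed in situ by E. coli RNA polymerase. A hybridised Cy3 probe tracked the variants at 37 °C as tiles were imaged over ~14 h. kobs, kcat and KM were obtained by fitting normalised per-tile medians to exponential decays and then applying weighted Michaelis–Menten fits across concentrations.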

glucosamine-6-phosphate [2] = variants of: B1; assay: self-cleavage kobs at 160 uM GlcN6P; higher = faster cleavage; RNA array
Method in brief: as §1

glucosamine-6-phosphate [3] = variants of: B1; assay: self-cleavage kobs at 640 uM GlcN6P; higher = faster cleavage; RNA array
Method in brief: as §1

glucosamine-6-phosphate [4] = variants of: B1; assay: self-cleavage kobs at 2500 uM GlcN6P; higher = faster cleavage; RNA array
Method in brief: as §1

glucosamine-6-phosphate [5] = variants of: B1; assay: self-cleavage kobs at 10000 uM GlcN6P; higher = faster cleavage; RNA array
Method in brief: as §1

Variant | self-cleavage kobs at 40 uM GlcN6P (glucosamine-6-phosphate [1]) [s⁻¹] | self-cleavage kobs at 160 uM GlcN6P (glucosamine-6-phosphate [2]) [s⁻¹] | self-cleavage kobs at 640 uM GlcN6P (glucosamine-6-phosphate [3]) [s⁻¹] | self-cleavage kobs at 2500 uM GlcN6P (glucosamine-6-phosphate [4]) [s⁻¹] | self-cleavage kobs at 10000 uM GlcN6P (glucosamine-6-phosphate [5]) [s⁻¹]
AUAAAAGCGCCAGAACUACAGAAAUGUAGUUGACGAGGAGGAGGUUUAUCGAAUUUUCGACGGAUGUCUCCAAA [G60A C67U] | < 1e-05 | < 1e-05 | – | – | –
AUAAACGGGCCAGAACUACAGAAAUGUAGUUGACGAGGAGGAGGUUUAUCGAAUUUUCGGCGGAUGCCUCCAAA [A6C C8G] | < 1e-05 | – | < 1e-05 | < 1e-05 | < 1e-05
AUAAAAGCGCCAGAACUACAGAAAUGUAGUUGCCGAGGAGGAGGUUUAUCGAAUUUUAGGCAGAUGCCUCCAAA [A33C C58A G62A] | < 1e-05 | – | – | – | –
AUAAAAGCGCCGGUACUACAGAAAUGUAGUUGACGAGAAGGAGGUUUAUCGAAUUUUCGGCGGAUGCCUCCAAA [A12G A14U G38A] | < 1e-05 | – | – | – | < 1e-05
AUAAAAGCGCCAGCACUACAGAAAUGUAGUGGACGAGGUGGAGGUUUAUCGAAUUUUCGGCGGAUGCCUCCAAA [A14C U31G A39U] | 0.000119 ± 2.4e-05 | – | 0.0016 ± 0.00039 | – | 0.0112 ± 0.003
AUAAAAGCGCCAGCUCUACAGAAAUGUAGUUGACGAGGAGGAGGUUUAUCCAAUUUUCGGCGGAUGCCUCCAAA [A14C A15U G51C] | < 1e-05 | – | – | – | –
AUAAAAGCGCCAGGACUACAGAAAUGUAGUUGACGAGGAGGAGGUUGAUCGAAUUUUCGGCGGAUGCCUCCAAA [A14G U47G] | 0.00069 ± 9.9e-05 | 0.00132 ± 0.0004 | 0.00356 ± 0.00073 | 0.0139 ± 0.0037 | 0.0324 ± 0.0073
AUAAAAGCGCCAGCACUACAGAAAUGUAGUUGACGAGGAUGAGGUCUAUCGAAUUUUCGGCGGAUGCUUCCAAA [A14C G40U U46C C68U] | < 1e-05 | – | – | – | –
AUAAAAGCGCCAGAACUACAGAAAUGUAGUUGACGGGGAGGAGGUUUAUCGAAUUUUCGACGGAUGCCUCCAAA [A36G G60A] | < 1e-05 | < 1e-05 | < 1e-05 | – | –
AUAAAAGCGCCAGAACUACAGAAAUGUAGUUAUCGAGGAGGAGGUUUAUCGAAUUUUCGGCGGAUGCGUCGAAA [G32A A33U C68G C71G] | 0.000162 ± 3.9e-05 | – | 0.000432 ± 0.0001 | 9.26e-05 ± 3.4e-05 | 0.000152 ± 3.2e-05
AUAAAAGCGCCAGAACUACAGAAAUGUAGUCGACAAGGAGGAGGUUUAUCGAAUUUUCGGCGGAUGCCUCCAAA [U31C G35A] | < 1e-05 | < 1e-05 | < 1e-05 | < 1e-05 | < 1e-05
AUAAAAGCGCCAGAACUACAGAAAUGUAGUUGACGAGGAGGCGGUUUAUCGAAUUUUCGGGGGAUGCCUCCAAA [A42C C61G] | < 1e-05 | < 1e-05 | < 1e-05 | < 1e-05 | –
AUAAAAGCGCGAGCACUACAGAAAUGUAGUUGACGAGGAGGAGGUUUAUCGAAUUUUCGGCGGAUGCCUCCAAA [C11G A14C] | < 1e-05 | < 1e-05 | – | – | –
AUAAAAGAGCCAGAACUACAGAAAUGUAGUUGACGAGGAGGGGGUUUAUCGAAUUUUCGGCGGAUGCUUCCAAA [C8A A42G C68U] | < 1e-05 | – | – | – | < 1e-05
AUAAAAGCGCCAGAACUACAGAAAUGUAGUUGACGCGGAGGAGGUUCAUCGAAUUUUCGGCGGAUGCCUCCAAA [A36C U47C] | < 1e-05 | – | < 1e-05 | < 1e-05 | –
AUAAAAGCGCCAGAACUACAGAAAUGUAGUUGACGAGGAGGAGGUUUAUCGAAUUUUCGGUGGCUGCCUCCAAA [C61U A64C] | < 1e-05 | – | – | < 1e-05 | < 1e-05
AUAAAAGCGCCAGAACUACAGAAAUGUAGUUGACGAGGAGGAGAUUUAUCAAAUUUUCGGCGGAGGGCUCCAAA [G44A G51A U65G C67G] | < 1e-05 | < 1e-05 | < 1e-05 | < 1e-05 | < 1e-05
AUAAAAGCGCCAGAACUACAGAAAUGUAGCUGACGAGGAGGAGGUUUAUCGAAUAUGCGGCGGAUGCCUCCAAA [U30C U55A U57G] | < 1e-05 | – | – | – | –
AUAAAAGCGCCAGAACUACAGAAAUGUAGUUGACGAGGAGGAGGUUUAUCGAAUUUGCGGCGGAAGCCUCCAAA [U57G U65A] | < 1e-05 | – | < 1e-05 | – | –
AUAAAAACGCCAGAACUACAGAAAUGUAGUUGACGUGGAGGAGGUUUAUCGAAUUUUCGGCGGAUGCCUCCAAA [G7A A36U] | < 1e-05 | < 1e-05 | < 1e-05 | < 1e-05 | –
AUAAAAGCACCAGAACUACAGAAAUGUAGUUGACGAGGCGGAGGUUUAUCGAAUUUUCGGCGGAUGCCUCCAAA [G9A A39C] | < 1e-05 | < 1e-05 | – | < 1e-05 | –
AUAAAAGAGCCAGAACUACAGAAAUGUAGUUGACGAGGAUGAGGUUUAUCGAAUUUUCGGCGGAUGCCUCCAAA [C8A G40U] | < 1e-05 | < 1e-05 | < 1e-05 | < 1e-05 | < 1e-05
AUAAAAGCGCCAGAACUACAGAAAUGUAGUUGUCGAGGAGGAGGUUUAACGAAUUUUCGGCGGAUGCCUCUAAA [A33U U49A C71U] | < 1e-05 | – | – | – | < 1e-05
AUAAAAGCGCCAGCACUACAGAAAUGUAGUUAACGAGGAGGUGGUUUAUCGAAGUUUCGGCGGAUGCCUCCAAA [A14C G32A A42U U54G] | < 1e-05 | – | – | – | –
AUAAAAGCGCCAGGGCUACAGAAAUGUAGUUGGCGAGGAUGAGGUUUAUCGAAUUUUCGGCGGAUGCCUCCAAA [A14G A15G A33G G40U] | < 1e-05 | – | < 1e-05 | – | < 1e-05
AUAAAAGCGCCAGAACUACAGAAAUGUAGUUGACGAGGAGGAUGUUUAUCAAAUUUUCGGCGGAGACCUCCAAA [G43U G51A U65G G66A] | < 1e-05 | – | – | – | –
AUAAAAGCGCCAGAACUACAGAAAUGUAGUUGACGAGGACAAGGUUUAUCGAAUUUUCGGCGGAUGCCUUCAAA [G40C G41A C70U] | 8.35e-05 ± 2.8e-05 | – | – | 0.000861 ± 0.00023 | –
